As a reminder, the Kd is the free concentration of one partner at which half of the binding sites on the other are occupied at equilibrium, for simple one-to-one binding. Low values mean tighter binding, high ones weaker binding.

The target of experiment [1] is T1, recombinant human N-cadherin ECD1-3-Fc (human; murine, UniProt P19022 160-497).
T1 construct: range 160-497; Cloned into pSECTag2A(AgeI); produced in 293-F cells, Protein A purified; also called Ncad-ECD1-3-Fc; not shown: murine gamma 2a Fc region
T1 sequence (looked up): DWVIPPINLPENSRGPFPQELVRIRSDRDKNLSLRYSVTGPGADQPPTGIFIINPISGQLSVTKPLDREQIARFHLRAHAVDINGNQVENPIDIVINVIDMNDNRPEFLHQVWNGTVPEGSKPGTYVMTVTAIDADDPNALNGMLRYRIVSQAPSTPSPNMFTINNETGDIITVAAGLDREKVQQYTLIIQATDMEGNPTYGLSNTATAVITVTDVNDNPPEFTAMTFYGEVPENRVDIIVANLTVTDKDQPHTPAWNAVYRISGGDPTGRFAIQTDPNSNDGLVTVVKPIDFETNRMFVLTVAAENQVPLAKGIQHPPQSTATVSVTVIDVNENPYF
Kind of experiment: ELISA, saturation binding on immobilized antigen. The protocol: Saturation binding of the humanized scFv fragments was performed on immobilized recombinant human Ncad-ECD1-3-Fc in ELISA (FIG. 8) confirming successful humanization and retained antigen specificity.

The target in experiment [2] is bacterially produced human N-cadherin ECD4 with ECD3 overhang (human) (UniProt P19022). Kind of experiment: ELISA, saturation binding on immobilized antigen, half-maximal binding.
Experiment [3] addresses T2, bacterially produced N-cadherin ECD1-3 (UniProt P19022 160-497, limits assumed).
T2 construct: domain: ECD1-3; Antigen against which hybridoma 1H7 was selected; also called ECD1-3 (bacterially produced)
T2 sequence (looked up): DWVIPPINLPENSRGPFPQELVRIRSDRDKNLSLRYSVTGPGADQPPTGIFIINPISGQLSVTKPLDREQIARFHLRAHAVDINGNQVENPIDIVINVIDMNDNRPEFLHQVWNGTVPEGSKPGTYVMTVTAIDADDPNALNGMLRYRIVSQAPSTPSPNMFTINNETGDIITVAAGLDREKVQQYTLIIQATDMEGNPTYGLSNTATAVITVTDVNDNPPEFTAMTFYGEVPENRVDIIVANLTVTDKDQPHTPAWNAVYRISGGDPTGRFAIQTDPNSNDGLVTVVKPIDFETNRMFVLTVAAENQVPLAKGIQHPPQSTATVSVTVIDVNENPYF
Described as above. The method, then:
FIG. 11 depicts saturation binding of full length IgGs to recombinant antigen in ELISA. Bacterially produced antigens ECD4 and ECD1-3 were immobilized. Bound antibodies were detected with goat anti-human Fcg-AP or goat anti-mouse Fcg-AP respectively.
Saturation binding of the humanized full-length antibodies in comparison to the parental murine antibodies was tested in ELISA.

B1: humanized 2A9 scFv (scFv)
scFv: QVQLVQSGAEVKKPGASVKLSCKASGYTFTSYWMQWVRQAPGQGLEWIGAIYPGDGETTYTQKFKGRVTMTADTSISTAYMELSRLRSDDTAVYYCAKGDGYWAMDYWGQGTLVTVSSGGGGSGGGGSGGGGSDVVMTQSPLSLPVTLGQPASISCRSSQSLVHSNGNTYLHWYQQRPGQSPRLLIYKVSNRFSGVPDRFSGSGSGTDFTLKISRVEAEDVGVYYCSQSTHVPLTFGAGTKLELK
notes: VH-(G4S)3-VL scFv secreted with the Ig kappa leader; also called hu2A9 scFv; scFv hu2A9; not shown: C-terminal tag from vector pSECTag2A (His-tag; detected through c-Myc)
For B1, the binding result in experiment [1] is “binds”.

B2: hu2A9 IgG (antibody, V domains shown)
VH: QVQLVQSGAEVKKPGASVKLSCKASGYTFTSYWMQWVRQAPGQGLEWIGAIYPGDGETTYTQKFKGRVTMTADTSISTAYMELSRLRSDDTAVYYCAKGDGYWAMDYWGQGTLVTVSS
VL: DVVMTQSPLSLPVTLGQPASISCRSSQSLVHSNGNTYLHWYQQRPGQSPRLLIYKVSNRFSGVPDRFSGSGSGTDFTLKISRVEAEDVGVYYCSQSTHVPLTFGAGTKLELK
On to B2, for which the Kd in experiment [2] was 0.5 nM. This counts as sub-nanomolar.

B3: hu1H7 IgG (antibody, V domains shown)
VH: QVQLVQSGAEVKKPGASVKVSCKASGFTFTDYLIQWVRQAPGQGLEWIGWIYPGSGSIKYNEKFQGRVTMTADTSINTAYMELSRLRSDDTAVYFCARRGDWGGFFDYWGQGTLVTVSS
VL: EIVLTQSPATLSLSPGERATLSCTASSSVSSSYLHWYQQKPGLAPRLWIFSTSNLASGIPDRFSGSGSGTDFTLTISRLEPEDFAVYYCHQYHRSLTFGGGTKVEIK
notes: also called h1H7; humanized full-length antibody hu1H7
In the case of B3, the affinity in experiment [3], expressed as Kd, was 0.4 nM. In other words, the sub-nanomolar range.
